Test results from article doi:10.1101/2022.02.10.479912 (bioRxiv, 2022).
Values belong to the binder of their own block, whether it stands above or below them.

Tests used:
[1] = target: T1, human Interleukin-18 (mature) (human, UniProt Q14116 37-193); experiment: SEC-MALLS
T1 sequence (looked up): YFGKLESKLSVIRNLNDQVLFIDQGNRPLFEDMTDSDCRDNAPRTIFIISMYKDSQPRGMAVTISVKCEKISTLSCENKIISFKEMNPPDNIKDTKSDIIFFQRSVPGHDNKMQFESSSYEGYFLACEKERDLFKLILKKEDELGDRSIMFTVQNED

[2] = target: T1, human Interleukin-18 (mature); experiment: ITC

binding result [1]: binds
B1: human IL-18BP truncated at the N-terminus (residues 63-194), endogenously glycosylated, without Endo H treatment (domain or fragment, UniProt O95998 63-194, looked up)
chain: QCPALEVTWPEVEVPLNGTLSLSCVACSRFPNFSILYWLGNGSFIEHLPGRLWEGSTSRERGSTGTQLCKALVLEQLTPALHSTNFSCVLVDPEQVVQRHVVLAQLWAGLRATLPPTQEALPSSHSSPQQQG
modifications: N-linked Man5GlcNAc2 glycans, not trimmed (no Endo H)

binding result [2]: binds
B2: human IL-18BP truncated at the N-terminus (residues 63-194) treated with Endoglycosidase H (domain or fragment, UniProt O95998 63-194, looked up)
chain: B1 chain
modifications: N-glycans trimmed by Endo H; N-Acetylglucosamine (GlcNAc) at Asn79, Asn103 and Asn147 in the crystal structure
